This note sets out measurements from patent US20060099648A1, “Compositions and methods for epitope mapping” (priority 2000, published 2006).

Sequences and labels used below:
B1: Peptide# 65 (peptide)
peptide: EDSGS
B2: Peptide# 19 (peptide)
peptide: FRHLD
B3: Peptide# 53 (peptide)
peptide: NGGCD
B4: Peptide# 3 (peptide)
peptide: SQHQC
B5: Peptide# 15 (peptide)
peptide: NSGCF
B6: Peptide# 73 (peptide)
peptide: KITCE
B7: Peptide# 33 (peptide)
peptide: NYKQE
B8: Peptide# 49 (peptide)
peptide: CNENN
B9: Peptide# 45 (peptide)
peptide: PNPTC
B10: Peptide# 54 (peptide)
peptide: GGCDA
B11: Peptide# 51 (peptide)
peptide: ENNGG
B12: Peptide# 61 (peptide)
peptide: KCTEE
B13: Peptide# 32 (peptide)
peptide: LNYKQ
B14: Peptide# 13 (peptide)
peptide: PQNSG
B15: Peptide# 4 (peptide)
peptide: QHQCV
B16: Peptide# 41 (peptide)
peptide: CVENP
B17: Peptide# 30 (peptide)
peptide: CLLNY
B18: Peptide# 67 (peptide)
peptide: SGSNG
B19: Peptide# 76 (peptide)
peptide: CECTK
B20: Peptide# 12 (peptide)
peptide: CPQNS
B21: Peptide# 62 (peptide)
peptide: CTEED
B22: Peptide# 14 (peptide)
peptide: QNSGC
B23: Peptide# 59 (peptide)
peptide: DAKCT
B24: Peptide# 64 (peptide)
peptide: EEDSG
B25: Peptide# 38 (peptide)
peptide: GDKCV
B26: Peptide# 60 (peptide)
peptide: AKCTE
B27: Peptide# 1 (peptide)
peptide: NISQH
B28: Peptide# 10 (peptide)
peptide: KQCPQ
B29: Peptide# 66 (peptide)
peptide: DSGSN
B30: Peptide# 75 (peptide)
peptide: TCECT
B31: Peptide# 72 (peptide)
peptide: KKITC
B32: Peptide# 56 (peptide)
peptide: CDADA
B33: Peptide# 11 (peptide)
peptide: QCPQN
B34: Peptide# 70 (peptide)
peptide: NGKKI
B35: Peptide# 17 (peptide)
peptide: GCFRH
B36: Peptide# 52 (peptide)
peptide: NNGGC
B37: Peptide# 27 (peptide)
peptide: ECKCL
B38: Peptide# 20 (peptide)
peptide: RHLDE
B39: Peptide# 47 (peptide)
peptide: PTCNE
B40: Peptide# 25 (peptide)
peptide: REECK
B41: Peptide# 71 (peptide)
peptide: GKKIT
B42: Peptide# 24 (peptide)
peptide: EREEC
B43: Peptide# 2 (peptide)
peptide: ISQHQ
B44: Peptide# 58 (peptide)
peptide: ADAKC
B45: Peptide# 39 (peptide)
peptide: DKCVE
B46: Peptide# 46 (peptide)
peptide: NPTCN
B47: Peptide# 35 (peptide)
peptide: KQEGD
B48: Peptide# 7 (peptide)
peptide: CVKKQ
B49: Peptide# 22 (peptide)
peptide: LDERE
B50: Peptide# 26 (peptide)
peptide: EECKC
B51: Peptide# 55 (peptide)
peptide: GCDAD
B52: Peptide# 48 (peptide)
peptide: TCNEN
B53: Peptide# 74 (peptide)
peptide: ITCEC
B54: Peptide# 57 (peptide)
peptide: DADAK
B55: Peptide# 44 (peptide)
peptide: NPNPT
B56: Peptide# 77 (peptide)
peptide: ECTKP
B57: Peptide# 16 (peptide)
peptide: SGCFR
B58: Peptide# 34 (peptide)
peptide: YKQEG
B59: Peptide# 31 (peptide)
peptide: LLNYK
B60: Peptide# 40 (peptide)
peptide: KCVEN
B61: Peptide# 23 (peptide)
peptide: DEREE
B62: Peptide# 37 (peptide)
peptide: EGDKC
B63: Peptide# 29 (peptide)
peptide: KCLLN
B64: Peptide# 63 (peptide)
peptide: TEEDS
B65: Peptide# 21 (peptide)
peptide: HLDER
B66: Peptide# 42 (peptide)
peptide: VENPN
B67: Peptide# 50 (peptide)
peptide: NENNG
B68: Peptide# 43 (peptide)
peptide: ENPNP
B69: Peptide# 36 (peptide)
peptide: QEGDK
B70: Peptide# 18 (peptide)
peptide: CFRHL
B71: Peptide# 6 (peptide)
peptide: QCVKK
B72: Peptide# 5 (peptide)
peptide: HQCVK
B73: Peptide# 28 (peptide)
peptide: CKCLL
B74: Peptide# 69 (peptide)
peptide: SNGKK
B75: Peptide# 68 (peptide)
peptide: GSNGK

Bounds are passed on as bounds.

For the test, the target named is Human IgG (Calbiochem; San Diego Calif.) (human). As to the kind of experiment: IgG displaced from peptide pin; competitor MSP1-19.
In turn, B1 showed a ΔF (%) of 7%.

Turning to B2, the ΔF (%) is less than 5%.

For B3, the ΔF (%) worked out at 10%.

In the case of B4, the ΔF (%) is less than 5%.

Consider B5, for which the ΔF (%) is less than 5%.

In the case of B6, the ΔF (%) was determined as 7%.

Molecule B7 gave a ΔF (%) of less than 5%.

Take B8: the ΔF (%) came out at 16%.

B9 showed a ΔF (%) of less than 5%.

In turn, B10 gave a ΔF (%) of less than 5%.

For B11, the ΔF (%) is less than 5%.

As to B12, the ΔF (%) is 6%.

In turn, B13 returned a ΔF (%) of less than 5%.

With B14, the ΔF (%) is less than 5%.

Take B15: the ΔF (%) is less than 5%.

On to B16, for which the ΔF (%) was less than 5%.

The molecule B17 yielded a ΔF (%) of less than 5%.

The molecule B18 showed a ΔF (%) of less than 5%.

The molecule B19 showed a ΔF (%) of less than 5%.

In the case of B20, the ΔF (%) is less than 5%.

B21 registered a ΔF (%) of less than 5%.

For B22, the ΔF (%) is less than 5%.

With B23, the ΔF (%) was less than 5%.

B24 displayed a ΔF (%) of 7%.

As to B25, the ΔF (%) is less than 5%.

In the case of B26, the ΔF (%) came out at 5%.

As to B27, the ΔF (%) is less than 5%.

The molecule B28 had a ΔF (%) of less than 5%.

B29 had a ΔF (%) of 9%.

As for B30, the ΔF (%) amounted to 12%.

B31: the ΔF (%) was found to be 9%.

Regarding B32, the ΔF (%) was less than 5%.

As to B33, the ΔF (%) was less than 5%.

Regarding B34, the ΔF (%) stood at 12%.

As for B35, the ΔF (%) was less than 5%.

For the molecule B36, the ΔF (%) was 6%.

The molecule B37 returned a ΔF (%) of less than 5%.

Molecule B38 showed a ΔF (%) of less than 5%.

In the case of B39, the ΔF (%) is less than 5%.

Regarding B40, the ΔF (%) was less than 5%.

B41: the ΔF (%) is 6%.

Molecule B42 displayed a ΔF (%) of less than 5%.

B43 gave a ΔF (%) of less than 5%.

Turning to B44, the ΔF (%) was less than 5%.

Molecule B45 registered a ΔF (%) of less than 5%.

Consider B46, for which the ΔF (%) was less than 5%.

Molecule B47 displayed a ΔF (%) of less than 5%.

Consider B48, for which the ΔF (%) is less than 5%.

B49 registered a ΔF (%) of less than 5%.

Regarding B50, the ΔF (%) is less than 5%.

The molecule B51 registered a ΔF (%) of 7%.

Take B52: the ΔF (%) was less than 5%.

Take B53: the ΔF (%) was found to be 5%.

Regarding B54, the ΔF (%) is less than 5%.

The molecule B55 yielded a ΔF (%) of less than 5%.

Molecule B56 displayed a ΔF (%) of 13%.

For B57, the ΔF (%) is less than 5%.

Take B58: the ΔF (%) is less than 5%.

As to B59, the ΔF (%) is less than 5%.

In turn, B60 showed a ΔF (%) of less than 5%.

B61 yielded a ΔF (%) of less than 5%.

As for B62, the ΔF (%) is less than 5%.

B63 came in with a ΔF (%) of less than 5%.

B64 had a ΔF (%) of less than 5%.

For the molecule B65, the ΔF (%) is less than 5%.

As for B66, the ΔF (%) was less than 5%.

Turning to B67, the ΔF (%) is 5%.

B68: the ΔF (%) was less than 5%.

As for B69, the ΔF (%) was less than 5%.

Take B70: the ΔF (%) is less than 5%.

Turning to B71, the ΔF (%) was less than 5%.

On to B72, for which the ΔF (%) is less than 5%.

In the case of B73, the ΔF (%) is less than 5%.

For the molecule B74, the ΔF (%) is less than 5%.

In turn, B75 displayed a ΔF (%) of less than 5%.
